Experimental findings from the RNAGym collection of RNA variant scans (doi:10.7554/elife.80360) are described below.

Sequences and labels used below:
B1: HDV Ribozyme (parent)
chain: GGCCGGCAUGGUCCCAGCCUCCUCGCUGGCGCCGGCUGGGCAACAUUCCGAGGGGACCGUCCCCUCGGUAAUGGCGAAUGGGACCCA

In this data set the parent is B1. The data set can be described thus: self-cleavage, relative activity (ratio to wild type); higher = more cleavage; co-transcriptional.
Regarding U37C A78U, the self-cleavage was 0.161.

As to G39A G53U, the self-cleavage was determined as 0.504. As for A70U G76C, the self-cleavage came out at 1. As for C15G G74U, the figure is 0.0875; as for G10U C86A, 0.712; as for G40C G74C, 0.0652. Regarding G28A U47C, the self-cleavage came to 0.0739.

On to G5C U60A, for which the self-cleavage was found to be 0.166.

Regarding G5C U60C, the self-cleavage amounted to 0. Then C49G G73C, with 0.136. Then C18U G73C, with 0.217; and A16U C75G, with 0.119; and A8G C61A, with 0.886. Then U12C A71C, with 0.0831; and C62G A87U, with 0.716; and G11A A77C, with 0.0898.

Turning to G25U C57G, the self-cleavage worked out at 0.208.

With G52A U69G, the self-cleavage was 0.955. As to G25C C44G, the self-cleavage stood at 0.101.

In the case of G17A G59A, the self-cleavage turned out to be 0.635. As for U69A G81U, the figure is 0.332; as for C3A A51U, 0.599. Then G6A C84G, with 0.122; and C24G A56C, with 0.0723. As for A51U C85A, the figure is 0.956; as for C19A C49U, 0.185. Take G10C G17A: the self-cleavage worked out at 0.804. For the variant C19A G55U, the self-cleavage is 0.0923.

Regarding U12A C48G, the self-cleavage stood at 0.415. G59C G73A: the self-cleavage was 0.779.

On to C15G C84A, for which the self-cleavage worked out at 0.519.

Turning to G52U C75U, the self-cleavage amounted to 0.115. As for G6A A45U, the figure is 0.486. Take C44A C85G: the self-cleavage was 0.629. As for C19A G35A, the figure is 0.111; as for G80C G81A, 0.089; as for G10A G76U, 0.997. Turning to U46G C49A, the self-cleavage amounted to 0.391. Then C15A G54U, with 0.585; and C22A G52C, with 0.305; and C36A U72C, with 0.0405. As for U37G G54C, the figure is 0.0594; as for U9C A51C, 1.49; as for C44G U72C, 0.198. As for C21A C32G, the figure is 0.0426; as for U65G A87G, 0.973; as for C15G U46A, 0.399. Take C15U C85A: the self-cleavage was found to be 0.962. As for U20A C36G, the figure is 0.18; as for A51C C84A, 0.675. In the case of A56G G80A, the self-cleavage was 0.32. As for G2A G17U, the self-cleavage amounted to 0.0432. As for C41A G55C, the figure is 0.831. As for C18A U69A, the figure is 0.19; as for G17U G54C, 0.536. As for G17U G54U, the figure is 0.546; as for C14U G76A, 1.49; as for G10U U69A, 0.813.

Turning to U23G C32G, the self-cleavage is 0.237. As for G17A G67C, the figure is 0.659; as for G10A U72A, 0.485.

Consider C30G C85G, for which the self-cleavage was found to be 0.0405. As for U65A G73U, the figure is 0.217; as for G10U A71U, 0.639; as for G5A C21G, 0.0811. On to C63G A71U, for which the self-cleavage stood at 0.712. As for U46A C57G, the figure is 0.617. As for U12G G50A, the figure is 0.787; as for A45G A71C, 1.01; as for C63U G67C, 0.96. Then G73C G74U, with 0.166. For the variant C66G C84U, the self-cleavage was determined as 0.545. For G6U C24G, the self-cleavage was found to be 0.0462. For the variant G31U A42G, the self-cleavage amounted to 0.0923.

G52C A70U: the self-cleavage was determined as 0.782. Then G17C A77C, with 0.277; and G54U C57U, with 0.993; and C75U U79C, with 0.172. As for A8U G17U, the figure is 0.18. Turning to C3U C30A, the self-cleavage came out at 0.223. As for C41U G74C, the figure is 0.174; as for C30G G80U, 0.0912.

Take A8G A56C: the self-cleavage came to 0.867. As to C66U G74U, the self-cleavage worked out at 0.475.

G10C G82U: the self-cleavage worked out at 0.348. Regarding U12C U46G, the self-cleavage came out at 0.0665. With C41A A78U, the self-cleavage stood at 0.354.

On to G25A G28A, for which the self-cleavage came out at 0.0482.

With C44A G76A, the self-cleavage is 0.873.

In the case of G52C G68C, the self-cleavage stood at 0.369. On to G34A U46G, for which the self-cleavage was 0.0332. Consider A16C A78U, for which the self-cleavage is 0.256.

As for G29A U60A, the self-cleavage worked out at 0.101. As for G10C C75U, the figure is 0.109. In the case of G31U G39A, the self-cleavage came out at 0.0361.

As to C30A C41G, the self-cleavage is 0.0875. Consider U37A C44U, for which the self-cleavage was 0.0386.

U69G G74U: the self-cleavage is 0.607.

Turning to G54A A70G, the self-cleavage worked out at 0.79. On to G6U G31U, for which the self-cleavage amounted to 0.121. As for C26A G55U, the figure is 1.17. As for C4U A8U, the figure is 0.415.

With G1A G17U, the self-cleavage amounted to 0.0449.

In the case of C75U A78C, the self-cleavage is 0. Take G10U C48A: the self-cleavage amounted to 0.698. Take C49G C61G: the self-cleavage turned out to be 0.618. C84G A87C: the self-cleavage is 0.409. For the variant U9C G53C, the self-cleavage stood at 1.15.

With G31C U46G, the self-cleavage is 0.266. Regarding C24U A70U, the self-cleavage is 0.598. As for C4G A43U, the figure is 0.0415.

On to G10A G31A, for which the self-cleavage is 0.203. Regarding C14U C64G, the self-cleavage is 1.24. On to G39C G74A, for which the self-cleavage was determined as 0.36.

Take G59A G80A: the self-cleavage turned out to be 0.305. As for C14G U79G, the figure is 0; as for U46G U72A, 0.266; as for A51G G74C, 0.148. Then G31A G35U, with 0.102; and C4A G25U, with 0.0252. As for G80U C84A, the figure is 0.652; as for U37A A83C, 0.0378.

For the variant C15G U37A, the self-cleavage amounted to 0. Consider C57U U72A, for which the self-cleavage is 0.657. Then C14A G17U, with 0.199; and A56G C61A, with 0.849.

As to C13G C36A, the self-cleavage came to 0.0449.

In the case of C49A G67C, the self-cleavage was determined as 1.04. Take C26U U47C: the self-cleavage was found to be 1.02. Then C32G C66U, with 0.162; and G29A C86A, with 0.155. Regarding U23A C75U, the self-cleavage was 0.346.

As for G39C G55A, the self-cleavage came out at 0.211.

In the case of G5C G50U, the self-cleavage is 0.0361. In the case of G5U G29U, the self-cleavage came out at 0.0594.

Regarding U27G A71G, the self-cleavage came out at 0.875. Then C36G G68U, with 0.0615; and C13U U79G, with 0.0519; and C13U U79C, with 0.103. Take G10C C85A: the self-cleavage was determined as 0.598. As for G10C C85U, the figure is 1.07; as for U47C G52U, 0.698; as for A45G A77U, 0.482. Consider G28U C49A, for which the self-cleavage was 0.0297.

Turning to G6C A42G, the self-cleavage was 0.

With C14U C18A, the self-cleavage was 0. Regarding C26A C36U, the self-cleavage was found to be 0.629. As for G1C A87G, the self-cleavage came to 0.0712. Regarding C7A C33G, the self-cleavage amounted to 0.0519. Turning to A83G A87U, the self-cleavage was found to be 0.861. As for C14A A87U, the figure is 0.623. As for U60A C61G, the figure is 1.19; as for U20A C48G, 0. As for C48A G68A, the figure is 1.06; as for C44U C85U, 0.954. Regarding C44U C85A, the self-cleavage was determined as 0.814.

As to A45U A78C, the self-cleavage came out at 0.13. As for A8G G59C, the figure is 0.858. For the variant A51U A78U, the self-cleavage amounted to 0.282. As for G53U U60G, the figure is 0.972; as for U20A C22U, 0. As for G6C C14U, the figure is 0.453; as for G10U C14U, 0.672. With A56G C66G, the self-cleavage was 1.01. On to G6U A71U, for which the self-cleavage came to 0.415. In the case of G5A G10C, the self-cleavage is 0.308. As for C57G C66U, the self-cleavage was found to be 0.848.
